According to patent US20260209293A1 (Novo Nordisk, published 2026):
*1 amine or outer side, *2 acyl side, *3 side chain or, on linkers, in order; H or OH if unused. The star is where a group is joined. C20 diacid = O=C(O)CCCCCCCCCCCCCCCCCCC(=O)*; C18 diacid = O=C(O)CCCCCCCCCCCCCCCCC(=O)*; γGlu = O=C(O)[C@H](CCC(=O)[*:2])N[*:1]

Key:
[1] = target: T1, human amylin-3(a) receptor (human, UniProt P30988 25-474; O60896 24-148); test: cell-based or functional assay
T1 sequence (looked up) 1: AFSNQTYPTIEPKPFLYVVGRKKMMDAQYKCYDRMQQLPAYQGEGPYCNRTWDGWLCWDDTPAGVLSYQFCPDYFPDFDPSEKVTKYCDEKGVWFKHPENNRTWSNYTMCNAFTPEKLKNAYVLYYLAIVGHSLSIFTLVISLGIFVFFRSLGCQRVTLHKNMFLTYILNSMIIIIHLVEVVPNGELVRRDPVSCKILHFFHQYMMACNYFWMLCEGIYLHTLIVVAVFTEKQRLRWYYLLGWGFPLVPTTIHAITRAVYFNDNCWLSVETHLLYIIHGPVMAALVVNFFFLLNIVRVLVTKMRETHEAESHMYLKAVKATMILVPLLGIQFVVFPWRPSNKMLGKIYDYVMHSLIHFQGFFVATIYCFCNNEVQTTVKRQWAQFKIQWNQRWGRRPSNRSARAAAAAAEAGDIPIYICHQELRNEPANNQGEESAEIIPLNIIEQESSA
T1 sequence (looked up) 2: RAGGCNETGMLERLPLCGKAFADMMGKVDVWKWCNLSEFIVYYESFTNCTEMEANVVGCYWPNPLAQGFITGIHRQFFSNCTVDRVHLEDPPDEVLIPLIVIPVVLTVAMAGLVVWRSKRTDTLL

[2] = target: T2, human calcitonin receptor (a) (human, UniProt P30988 25-474); test: cell-based or functional assay
T2 sequence (looked up): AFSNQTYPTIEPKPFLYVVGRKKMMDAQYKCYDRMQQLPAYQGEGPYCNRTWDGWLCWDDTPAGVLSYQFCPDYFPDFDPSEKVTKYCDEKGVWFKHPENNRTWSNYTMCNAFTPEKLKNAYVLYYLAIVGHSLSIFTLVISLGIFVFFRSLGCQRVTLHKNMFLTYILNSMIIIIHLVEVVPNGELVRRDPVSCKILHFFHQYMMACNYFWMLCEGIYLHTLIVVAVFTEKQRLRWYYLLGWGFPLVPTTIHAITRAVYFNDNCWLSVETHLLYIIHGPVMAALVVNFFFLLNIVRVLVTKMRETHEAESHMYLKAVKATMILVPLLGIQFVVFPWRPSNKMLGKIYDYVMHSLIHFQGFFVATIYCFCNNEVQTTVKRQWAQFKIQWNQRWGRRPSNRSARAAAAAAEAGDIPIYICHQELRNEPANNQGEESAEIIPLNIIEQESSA

B1: N^1-[(4S)-4-carboxy-4-(17-carboxyheptadecanoylamino)butanoyl]-[Ala1,Ser2,Gln3,Leu4,Ser5,Ala7,Gln8,Ala10,Glu14,His17,Asp21,Pro25,Pro28,Pro29,Asp31,Pro37]-human … (peptide)
peptide: {C18 diacid-γGlu}-ASQLSTAQTARLAEFLHHSSDNFGPILPPTDVGSNTP-NH2
SMILES: CC[C@H](C)[C@H](NC(=O)[C@@H]1CCCN1C(=O)CNC(=O)[C@H](Cc1ccccc1)NC(=O)[C@H](CC(N)=O)NC(=O)[C@H](CC(=O)O)NC(=O)[C@H](CO)NC(=O)[C@H](CO)NC(=O)[C@H](Cc1c[nH]cn1)NC(=O)[C@H](Cc1c[nH]cn1)NC(=O)[C@H](CC(C)C)NC(=O)[C@H](Cc1ccccc1)NC(=O)[C@H](CCC(=O)O)NC(=O)[C@H](C)NC(=O)[C@H](CC(C)C)NC(=O)[C@H](CCCNC(=N)N)NC(=O)[C@H](C)NC(=O)[C@@H](NC(=O)[C@H](CCC(N)=O)NC(=O)[C@H](C)NC(=O)[C@@H](NC(=O)[C@H](CO)NC(=O)[C@H](CC(C)C)NC(=O)[C@H](CCC(N)=O)NC(=O)[C@H](CO)NC(=O)[C@H](C)NC(=O)CC[C@H](NC(=O)CCCCCCCCCCCCCCCCC(=O)O)C(=O)O)[C@@H](C)O)[C@@H](C)O)C(=O)N[C@@H](CC(C)C)C(=O)N1CCC[C@H]1C(=O)N1CCC[C@H]1C(=O)N[C@H](C(=O)N[C@@H](CC(=O)O)C(=O)N[C@H](C(=O)NCC(=O)N[C@@H](CO)C(=O)N[C@@H](CC(N)=O)C(=O)N[C@H](C(=O)N1CCC[C@H]1C(N)=O)[C@@H](C)O)C(C)C)[C@@H](C)O
hAmyR3 potency, EC50 (pM); CRE-luciferase reporter in BHK cells [1]: 1.22 pM
hCalcR potency, EC50 (pM); CRE-luciferase reporter in BHK cells [2]: 1.86 pM

B2: N^1-[(4S)-4-carboxy-4-(17-carboxyheptadecanoylamino)butanoyl]-[Ala1,Ser2,Ala3,Leu4,Ser5,Ala7,Gln8,Ala10,Glu14, His17,Asp21, Pro25, Pro28, Pro29,Asp31, … (peptide)
peptide: {C18 diacid-γGlu}-ASALSTAQTARLAEFLHHSSDNFGPILPPTDVGSNTP-NH2
SMILES: CC[C@H](C)[C@H](NC(=O)[C@@H]1CCCN1C(=O)CNC(=O)[C@H](Cc1ccccc1)NC(=O)[C@H](CC(N)=O)NC(=O)[C@H](CC(=O)O)NC(=O)[C@H](CO)NC(=O)[C@H](CO)NC(=O)[C@H](Cc1c[nH]cn1)NC(=O)[C@H](Cc1c[nH]cn1)NC(=O)[C@H](CC(C)C)NC(=O)[C@H](Cc1ccccc1)NC(=O)[C@H](CCC(=O)O)NC(=O)[C@H](C)NC(=O)[C@H](CC(C)C)NC(=O)[C@H](CCCNC(=N)N)NC(=O)[C@H](C)NC(=O)[C@@H](NC(=O)[C@H](CCC(N)=O)NC(=O)[C@H](C)NC(=O)[C@@H](NC(=O)[C@H](CO)NC(=O)[C@H](CC(C)C)NC(=O)[C@H](C)NC(=O)[C@H](CO)NC(=O)[C@H](C)NC(=O)CC[C@H](NC(=O)CCCCCCCCCCCCCCCCC(=O)O)C(=O)O)[C@@H](C)O)[C@@H](C)O)C(=O)N[C@@H](CC(C)C)C(=O)N1CCC[C@H]1C(=O)N1CCC[C@H]1C(=O)N[C@H](C(=O)N[C@@H](CC(=O)O)C(=O)N[C@H](C(=O)NCC(=O)N[C@@H](CO)C(=O)N[C@@H](CC(N)=O)C(=O)N[C@H](C(=O)N1CCC[C@H]1C(N)=O)[C@@H](C)O)C(C)C)[C@@H](C)O
hAmyR3 potency, EC50 (pM); CRE-luciferase reporter in BHK cells [1]: 1.62 pM
hCalcR potency, EC50 (pM); CRE-luciferase reporter in BHK cells [2]: 1.58 pM

B3: N^1-[(4S)-4-carboxy-4-(17-carboxyheptadecanoylamino)butanoyl]-[Ala1,Ser2,Gln3,Leu4,Ser5,Ala7,Gln8,Glu14, His17,Asp21, Pro22, Pro27,Asp31,Pro34,Asp35, … (peptide)
peptide: {C18 diacid-γGlu}-ASQLSTAQTQRLAEFLHHSSDPFGAIPSSTDVGPDTP-NH2
SMILES: CC[C@H](C)[C@H](NC(=O)[C@H](C)NC(=O)CNC(=O)[C@H](Cc1ccccc1)NC(=O)[C@@H]1CCCN1C(=O)[C@H](CC(=O)O)NC(=O)[C@H](CO)NC(=O)[C@H](CO)NC(=O)[C@H](Cc1c[nH]cn1)NC(=O)[C@H](Cc1c[nH]cn1)NC(=O)[C@H](CC(C)C)NC(=O)[C@H](Cc1ccccc1)NC(=O)[C@H](CCC(=O)O)NC(=O)[C@H](C)NC(=O)[C@H](CC(C)C)NC(=O)[C@H](CCCNC(=N)N)NC(=O)[C@H](CCC(N)=O)NC(=O)[C@@H](NC(=O)[C@H](CCC(N)=O)NC(=O)[C@H](C)NC(=O)[C@@H](NC(=O)[C@H](CO)NC(=O)[C@H](CC(C)C)NC(=O)[C@H](CCC(N)=O)NC(=O)[C@H](CO)NC(=O)[C@H](C)NC(=O)CC[C@H](NC(=O)CCCCCCCCCCCCCCCCC(=O)O)C(=O)O)[C@@H](C)O)[C@@H](C)O)C(=O)N1CCC[C@H]1C(=O)N[C@@H](CO)C(=O)N[C@@H](CO)C(=O)N[C@H](C(=O)N[C@@H](CC(=O)O)C(=O)N[C@H](C(=O)NCC(=O)N1CCC[C@H]1C(=O)N[C@@H](CC(=O)O)C(=O)N[C@H](C(=O)N1CCC[C@H]1C(N)=O)[C@@H](C)O)C(C)C)[C@@H](C)O
hAmyR3 potency, EC50 (pM); CRE-luciferase reporter in BHK cells [1]: 1.49 pM
hCalcR potency, EC50 (pM); CRE-luciferase reporter in BHK cells [2]: 1.56 pM

B4: N^1-[(4S)-4-carboxy-4-(17-carboxyheptadecanoylamino)butanoyl]-[Ala1,Ser2,His3,Leu4,Ser5,Ala7,Gln8,Ala10,Glu14,His17,Asp21,Pro22,Pro27,Asp31,Pro34,Asp35,Pro37]-h … (peptide)
peptide: {C18 diacid-γGlu}-ASHLSTAQTARLAEFLHHSSDPFGAIPSSTDVGPDTP-NH2
SMILES: CC[C@H](C)[C@H](NC(=O)[C@H](C)NC(=O)CNC(=O)[C@H](Cc1ccccc1)NC(=O)[C@@H]1CCCN1C(=O)[C@H](CC(=O)O)NC(=O)[C@H](CO)NC(=O)[C@H](CO)NC(=O)[C@H](Cc1c[nH]cn1)NC(=O)[C@H](Cc1c[nH]cn1)NC(=O)[C@H](CC(C)C)NC(=O)[C@H](Cc1ccccc1)NC(=O)[C@H](CCC(=O)O)NC(=O)[C@H](C)NC(=O)[C@H](CC(C)C)NC(=O)[C@H](CCCNC(=N)N)NC(=O)[C@H](C)NC(=O)[C@@H](NC(=O)[C@H](CCC(N)=O)NC(=O)[C@H](C)NC(=O)[C@@H](NC(=O)[C@H](CO)NC(=O)[C@H](CC(C)C)NC(=O)[C@H](Cc1c[nH]cn1)NC(=O)[C@H](CO)NC(=O)[C@H](C)NC(=O)CC[C@H](NC(=O)CCCCCCCCCCCCCCCCC(=O)O)C(=O)O)[C@@H](C)O)[C@@H](C)O)C(=O)N1CCC[C@H]1C(=O)N[C@@H](CO)C(=O)N[C@@H](CO)C(=O)N[C@H](C(=O)N[C@@H](CC(=O)O)C(=O)N[C@H](C(=O)NCC(=O)N1CCC[C@H]1C(=O)N[C@@H](CC(=O)O)C(=O)N[C@H](C(=O)N1CCC[C@H]1C(N)=O)[C@@H](C)O)C(C)C)[C@@H](C)O
hAmyR3 potency, EC50 (pM); CRE-luciferase reporter in BHK cells [1]: 1.27 pM
hCalcR potency, EC50 (pM); CRE-luciferase reporter in BHK cells [2]: 1.5 pM

B5: N^1-[(4S)-4-carboxy-4-(17-carboxyheptadecanoylamino)butanoyl]-[Ala1,Ser2,His3,Leu4,Ser5,Ala7,Gln8,Glu14,His17,Asp21, Pro22,Pro27,Asp31, Pro34,Pro37]-human … (peptide)
peptide: {C18 diacid-γGlu}-ASHLSTAQTQRLAEFLHHSSDPFGAIPSSTDVGPNTP-NH2
SMILES: CC[C@H](C)[C@H](NC(=O)[C@H](C)NC(=O)CNC(=O)[C@H](Cc1ccccc1)NC(=O)[C@@H]1CCCN1C(=O)[C@H](CC(=O)O)NC(=O)[C@H](CO)NC(=O)[C@H](CO)NC(=O)[C@H](Cc1c[nH]cn1)NC(=O)[C@H](Cc1c[nH]cn1)NC(=O)[C@H](CC(C)C)NC(=O)[C@H](Cc1ccccc1)NC(=O)[C@H](CCC(=O)O)NC(=O)[C@H](C)NC(=O)[C@H](CC(C)C)NC(=O)[C@H](CCCNC(=N)N)NC(=O)[C@H](CCC(N)=O)NC(=O)[C@@H](NC(=O)[C@H](CCC(N)=O)NC(=O)[C@H](C)NC(=O)[C@@H](NC(=O)[C@H](CO)NC(=O)[C@H](CC(C)C)NC(=O)[C@H](Cc1c[nH]cn1)NC(=O)[C@H](CO)NC(=O)[C@H](C)NC(=O)CC[C@H](NC(=O)CCCCCCCCCCCCCCCCC(=O)O)C(=O)O)[C@@H](C)O)[C@@H](C)O)C(=O)N1CCC[C@H]1C(=O)N[C@@H](CO)C(=O)N[C@@H](CO)C(=O)N[C@H](C(=O)N[C@@H](CC(=O)O)C(=O)N[C@H](C(=O)NCC(=O)N1CCC[C@H]1C(=O)N[C@@H](CC(N)=O)C(=O)N[C@H](C(=O)N1CCC[C@H]1C(N)=O)[C@@H](C)O)C(C)C)[C@@H](C)O
hAmyR3 potency, EC50 (pM); CRE-luciferase reporter in BHK cells [1]: 1.31 pM
hCalcR potency, EC50 (pM); CRE-luciferase reporter in BHK cells [2]: 2.19 pM

B6: N^1-[(4S)-4-carboxy-4-(19-carboxynonadecanoylamino)butanoyl]-[Ala1,Ser2,His3,Leu4,Ser5,Ala7,Gln8,Glu14,His17,Pro25,Pro28,Pro29,Asp31,Glu35,Pro37],des-(19-22)-hu … (peptide)
peptide: {C20 diacid-γGlu}-ASHLSTAQTQRLAEFLHHFGPILPPTDVGSETP-NH2
SMILES: CC[C@H](C)[C@H](NC(=O)[C@@H]1CCCN1C(=O)CNC(=O)[C@H](Cc1ccccc1)NC(=O)[C@H](Cc1c[nH]cn1)NC(=O)[C@H](Cc1c[nH]cn1)NC(=O)[C@H](CC(C)C)NC(=O)[C@H](Cc1ccccc1)NC(=O)[C@H](CCC(=O)O)NC(=O)[C@H](C)NC(=O)[C@H](CC(C)C)NC(=O)[C@H](CCCNC(=N)N)NC(=O)[C@H](CCC(N)=O)NC(=O)[C@@H](NC(=O)[C@H](CCC(N)=O)NC(=O)[C@H](C)NC(=O)[C@@H](NC(=O)[C@H](CO)NC(=O)[C@H](CC(C)C)NC(=O)[C@H](Cc1c[nH]cn1)NC(=O)[C@H](CO)NC(=O)[C@H](C)NC(=O)CC[C@H](NC(=O)CCCCCCCCCCCCCCCCCCC(=O)O)C(=O)O)[C@@H](C)O)[C@@H](C)O)C(=O)N[C@@H](CC(C)C)C(=O)N1CCC[C@H]1C(=O)N1CCC[C@H]1C(=O)N[C@H](C(=O)N[C@@H](CC(=O)O)C(=O)N[C@H](C(=O)NCC(=O)N[C@@H](CO)C(=O)N[C@@H](CCC(=O)O)C(=O)N[C@H](C(=O)N1CCC[C@H]1C(N)=O)[C@@H](C)O)C(C)C)[C@@H](C)O
hAmyR3 potency, EC50 (pM); CRE-luciferase reporter in BHK cells [1]: 1.12 pM
hCalcR potency, EC50 (pM); CRE-luciferase reporter in BHK cells [2]: 1.44 pM
